Test results from paper PMC12221982, “The structure of the complete extracellular bacterial flagellum reveals the mechanism of flagellin incorporation” (Nature Microbiology, 2025).

Tests used:
[1] = molecular target: the molecule itself; assay: cryo-EM structure; single-particle cryo-EM of flagellar hook tips on C. jejuni ΔflhG ΔflaAB minicells (no filament); cap-HFJ map at 6.5 Å; model of 11 FlgK, 11 FlgL and 5 FliD fitted as rigid bodies and refined
[2] = molecular target: T1, FliC flagellin (S. enterica) (S. enterica subsp. enterica serovar …, UniProt P06179 1-495); assay: cryo-EM structure; single-particle cryo-EM of the same purified short flagella of S. enterica EM16009; hook-filament junction map at 2.9 Å; model of 13 FlgE, 11 FlgK, 11 FlgL and 14 FliC; settings: both partners purified
T1 construct: FliC, phase 1 flagellin of Salmonella enterica subsp. enterica serovar Typhimurium LT2; domains D0 to D3; […]; There are 17 copies in the cap model and 14 in the HFJ model; also called filament; source: S. enterica strain EM16009, chromosomal fliC under the inducible PtetA promoter (30 min AnTc); part of purified short flagella

[3] = molecular target: the molecule itself; assay: as above
[4] = molecular target: T1, FliC flagellin (S. enterica); assay: cryo-EM structure; single-particle cryo-EM of purified short flagella of S. enterica EM16009 (buffer B: 10 mM Tris pH 8, 5 mM EDTA, 0.01% DDM); cap-filament map at 3.7 Å; model of 5 FliD and 17 FliC; settings: both partners purified
[5] = molecular target: the molecule itself; assay: as above

T1 sequence (P06179 whole entry): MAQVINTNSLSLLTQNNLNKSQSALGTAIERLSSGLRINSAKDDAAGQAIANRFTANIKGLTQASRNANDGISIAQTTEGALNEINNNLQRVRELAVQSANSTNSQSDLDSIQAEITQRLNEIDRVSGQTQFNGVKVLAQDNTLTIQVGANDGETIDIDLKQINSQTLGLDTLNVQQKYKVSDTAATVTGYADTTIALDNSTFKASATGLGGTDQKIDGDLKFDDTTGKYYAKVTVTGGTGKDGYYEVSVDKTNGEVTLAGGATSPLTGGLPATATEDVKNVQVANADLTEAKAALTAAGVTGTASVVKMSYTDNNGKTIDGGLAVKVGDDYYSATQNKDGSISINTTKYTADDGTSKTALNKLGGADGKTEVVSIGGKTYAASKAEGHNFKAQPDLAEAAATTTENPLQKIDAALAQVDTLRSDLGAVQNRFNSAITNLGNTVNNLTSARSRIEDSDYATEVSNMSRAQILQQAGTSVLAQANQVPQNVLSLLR

B1: FlgK hook-filament junction protein (C. jejuni) (natural protein)
chain: MGIFGTLYTGVTGLKASEVQIATTGNNISNANATFYTRQRVVQTTNGYITTGGVQVGTGTAVESIVRLHDEYSYYKLKGASTQLEYTKYMASTLQEIAQRFPDLQNTGILQDLENYNKAWNDFASNPNENATKIALVKASQTLTESVNNTFATLDKIQKKVNDDIKNTVDEINRIGEEIATINKQIYGQEALPTEHANELRDRRDELELTLSKLVSAVASKNEINQDNRLDTTITDPGHQYNLSIEGFSIVDGINFHPLKLDYDDKNKSYSIYYETPDEKVRDLTAKISGGQLGAQLDLRGRNYSKSEGKYEDGIIQGYMDSLDTFAKTMINETNNLYASSAKSSVTSDYLSGLKGDIPLVNYDRTIQPGSFDIVIYDDKGDKKLTKTITIDVNTTMNDIMRQINANTDDNDNKNSNDDVDDHINASFSYDAKTGDGLFQINAKSGFKVAIEDKGTNFAGAFSIGGFFSGTDASDMKVKDSILNDPSTVRASSNGVDSGNDMANKIIQLQYKKVNFYNEDGTIDNLTMEEYYRKLTGKIASDGENNNVVNSSNETLYNSVYSEYQSKSGVNTNEELAALIQYQSSYGAAAKIVSTVDQMLDTLLGLKS
notes: model built from an AlphaFold model; Eleven subunits form the proximal layer of the HFJ; also called C. jejuni FlgK; source: endogenous, C. jejuni ΔflhG ΔflaAB minicells, imaged in situ
stoichiometry N [1]: 11 subunits

B2: FliD filament cap protein (C. jejuni) (natural protein)
chain: MAFGSLSSLGFGSGVLTQDTIDKLKEAEQKARIDPYTKKIEENTTKQKDLTEIKTKLLSFQTAVSSLADATVFAKRKVVGSISDNPPASLTVNSGVALQSMNINVTQLAQKDVYQSKGLANDGGFVNAQLNGTADLTFFSNGKEYTVTVDKNTTYRDLADKINEASGGEIVAKIVNTGEKGTPYRLTLTSKETGEDSAISFYAGKKDSNGKYQKDINAEKIFDDLGWGLDVSASIDPDKDKKGYGIKDASLHIQTAQNAEFTLDGIKMFRSSNTVTDLGVGMTLTLNKTGEINFDVQQDFEGVTKAMQDLVDAYNDLVTNLNAATDYNSETGTKGTLQGISEVNSIRSSILADLFDSQVVDGTTEDANGNKVNTKVMLSMQDFGLSLNDAGTLSFDSSKFEQKVKEDPDSTESFFSNITKYEDINHTGEVIKTGSLSKYLNSNGGNTNGLEFKPGDFTIVFNNQTYDLSKNSDGTNFKLTGKTEEELLQNLANHINSKGIEGLKVKVESYNQNNVTGFRLNFSGDGSSDFSIKGDANILKELGLSDVNITSKPIEGKGIFSKLKATLQEMTGKDGSITKYDESLTNDIKSLNTSKDSTQAMIDTRYDTMANQWLQYESILNKLNQQLNTVTNMINAANNSNN
notes: has an additional domain D4; model built from an AlphaFold model; Five subunits form the pentameric cap on the HFJ; also called C. jejuni FliD; FliD cap of C. jejuni; source: endogenous, C. jejuni ΔflhG ΔflaAB minicells, imaged in situ
stoichiometry N [1]: 5 subunits

B3: FlgL hook-filament junction protein (S. enterica) (natural protein)
chain: MRISTQMMYEQNMSGITNSQAEWMKLGEQMSTGKRVTNPSDDPIAASQAVVLSQAQAQNSQYALARTFATQKVSLEESVLSQVTTAIQTAQEKIVYAGNGTLSDDDRASLATDLQGIRDQLMNLANSTDGNGRYIFAGYKTEAAPFDQATGGYHGGEKSVTQQVDSARTMVIGHTGAQIFNSITSNAVPEPDGSDSEKNLFVMLDTAIAALKTPVEGNNVEKEKAAAAIDKTNRGLKNSLNNVLTVRAELGTQLSELSTLDSLGSDRALGQKLQMSNLVDVDWNSVISSYVMQQAALQASYKTFTDMQGMSLFQLNR
notes: FlgL, hook-filament junction protein (distal layer) of Salmonella enterica subsp. enterica serovar Typhimurium LT2; […]; Eleven subunits form the distal layer of the hook-filament junction; also called HFJ; FlgKL; source: endogenous, S. enterica strain EM16009; part of purified short flagella
binding result [2]: binds | stoichiometry N [3]: 11 subunits

B4: FlgE hook protein (S. enterica) (natural protein)
chain: MSFSQAVSGLNAAATNLDVIGNNIANSATYGFKSGTASFADMFAGSKVGLGVKVAGITQDFTDGTTTNTGRGLDVAISQNGFFRLVDSNGSVFYSRNGQFKLDENRNLVNMQGMQLTGYPATGTPPTIQQGANPAPITIPNTLMAAKSTTTASMQINLNSTDPVPSKTPFSVSDADSYNKKGTVTVYDSQGNAHDMNVYFVKTKDNEWAVYTHDSSDPAATAPTTASTTLKFNENGILESGGTVNITTGTINGATAATFSLSFLNSMQQNTGANNIVATNQNGYKPGDLVSYQINNDGTVVGNYSNEQEQVLGQIVLANFANNEGLASQGDNVWAATQASGVALLGTAGSGNFGKLTNGALEASNVDLSKELVNMIVAQRNYQSNAQTIKTQDQILNTLVNLR
notes: FlgE, flagellar hook protein of Salmonella enterica subsp. enterica serovar Typhimurium LT2; […]; There are 13 copies in the HFJ model; source: endogenous, S. enterica strain EM16009; part of purified short flagella
binding result [3]: binds

B5: FliD filament cap protein (S. enterica) (natural protein)
chain: MASISSLGVGSNLPLDQLLTDLTKNEKGRLTPITKQQSANSAKLTAYGTLKSALEKFQTANTALNKADLFKSTVASSTTEDLKVSTTAGAAAGTYKINVTQLAAAQSLATKTTFATTKEQLGDTSVTSRTIKIEQPGRKEPLEIKLDKGDTSMEAIRDAINDADSGIAASIVKVKENEFQLVLTANSGTDNTMKITVEGDTKLNDLLAYDSTTNTGNMQELVKAENAKLNVNGIDIERQSNTVTDAPQGITLTLTKKVTDATVTVTKDDTKAKEAIKSWVDAYNSLVDTFSSLTKYTAVEPGEEASDKNGALLGDSVVRTIQTGIRAQFANSGSNSAFKTMAEIGITQDGTSGKLKIDDDKLTKVLKDNTAAARELLVGDGKETGITTKIATEVKSYLADDGIIDNAQDNVNATLKSLTKQYLSVSNSIDETVARYKAQFTQLDTMMSKLNNTSSYLTQQFTAMNKS
notes: FliD, flagellar filament cap protein of Salmonella enterica subsp. enterica serovar Typhimurium LT2; domains D0 to D3; […]; Five subunits form the pentameric cap at the distal end of the filament; also called FliD cap; filament cap complex; source: endogenous, S. enterica strain EM16009; part of purified short flagella (DDM lysis, ultracentrifugation)
binding result [4]: binds | stoichiometry N [5]: 5 subunits

B6: FlgK hook-filament junction protein (S. enterica) (natural protein)
chain: MSSLINHAMSGLNAAQAALNTVSNNINNYNVAGYTRQTTILAQANSTLGAGGWIGNGVYVSGVQREYDAFITNQLRGAQNQSSGLTTRYEQMSKIDNLLADKSSSLSGSLQSFFTSLQTLVSNAEDPAARQALIGKAEGLVNQFKTTDQYLRDQDKQVNIAIGSSVAQINNYAKQIANLNDQISRMTGVGAGASPNDLLDQRDQLVSELNKIVGVEVSVQDGGTYNLTMANGYTLVQGSTARQLAAVPSSADPTRTTVAYVDEAAGNIEIPEKLLNTGSLGGLLTFRSQDLDQTRNTLGQLALAFADAFNAQHTKGYDADGNKGKDFFSIGSPVVYSNSNNADKTVSLTAKVVDSTKVQATDYKIVFDGTDWQVTRTADNTTFTATKDADGKLEIDGLKVTVGTGAQKNDSFLLKPVSNAIVDMNVKVTNEAEIAMASESKLDPDVDTGDSDNRNGQALLDLQNSNVVGGNKTFNDAYATLVSDVGNKTSTLKTSSTTQANVVKQLYKQQQSVSGVNLDEEYGNLQRYQQYYLANAQVLQTANALFDALLNIR
notes: FlgK, hook-filament junction protein (proximal layer) of Salmonella enterica subsp. enterica serovar Typhimurium LT2; […]; Eleven subunits form the proximal layer of the hook-filament junction; also called HFJ; FlgKL; source: endogenous, S. enterica strain EM16009; part of purified short flagella
stoichiometry N [3]: 11 subunits

B7: FlgL hook-filament junction protein (C. jejuni) (natural protein)
chain: MRITNKLNFTNSVNNSMGGQSALYQISQQLASGLKIQNSYEDASTYIDNTRLEYEIKTLEQVKESTSRAQEMTQNSMKALQDMVKLLEDFKVKVTQAASDSNSQTSREAIAKELERIKESIVQLANTSVNGQYLFAGSQVANKPFDSNGNYYGDKNNINVVTGAGTESPYNIPGWDLFFKADGDYKKQISTNVSFTDNRWDLNKDPDKTKYLTGDSKWQQLIGQGYVKDNSLDADKDFEYDDSKLDFPPTTLYVQGTKPDGTSFKSAVLVKPEDTLEDVMENIGALYGNTPNNKVVEVSMNDSGQIQITDLKQGNNKLDFHAVAFTPQADTKDELKNIIEAANQEGISMNEVTNRVMQAATAAPSNGDITKLNNPVTVTINNQQFTIDLKQTDFIKSKMTDTDGNAANGADYDNVYFEKNGNTVYGNVSQVIKGSNAYATDSTKLSEVMAGDSLNGTTLNLKVNSKGGNSYDVTINLQTSTVSYPDPNNPGQTISFPIMHTNPATGNSGVVTGSNDITYGQINDIIGMFAADKIPTTTIQANNGQINNADYTQIQQLMKDSQATVDVSMDYKGRISVTDKLSSGTNIEISLSDSQSGQFPAPPFTTTSTVQNGPNFSFSANNSLTIDEPNVDIIKDLDSMIDAVLKGNMRADSESENPRNTGMQGALERLDHLADHVSKLNTTMGAYHNTIEGVNTRTSFLSVNVQSIKSNVIDVDYGEAMMNLMQVQLAYQASLKASTTISQLSLLNYM
notes: has a bulky D2 domain; model built from an AlphaFold model; Eleven subunits form the distal layer of the HFJ; also called C. jejuni FlgL; source: endogenous, C. jejuni ΔflhG ΔflaAB minicells, imaged in situ
stoichiometry N [1]: 11 subunits
